{"source": "paper PMC2528843", "key": {"[1]": {"experiment": "confocal imaging, apical targeting, polarized MDCK cells", "conditions": "glycan lost; control: wild-type hSVCT1-YFP"}, "[2]": {"experiment": "flow cytometry, mean YFP fluorescence, stable HepG2", "conditions": "glycan lost"}, "[3]": {"experiment": "confocal imaging, cell surface targeting, stable HepG2", "conditions": "glycan lost; control: wild-type hSVCT1-YFP"}, "[4]": {"experiment": "confocal imaging, transiently transfected HepG2", "conditions": "glycan lost; control: untreated"}, "[5]": {"experiment": "[14C]-ascorbic acid uptake, stable HepG2 cells", "conditions": "glycan lost; control: wild-type hSVCT1-YFP"}}, "data": [{"substance": "hSVCT1: N138Q/N144Q", "values": [{"measurement": "localisation_or_trafficking", "setting": "[1]", "value": "decreases"}]}, {"substance": "hSVCT1: N138/N144Q", "values": [{"measurement": "expression_or_secretion", "setting": "[2]; control: wild-type hSVCT1-YFP", "value": "decreases"}]}, {"substance": "hSVCT2: N188Q", "values": [{"measurement": "expression_or_secretion", "setting": "[2]; control: wild-type hSVCT2-YFP", "value": "decreases"}]}, {"substance": "hSVCT2: N188/N196Q", "values": [{"measurement": "expression_or_secretion", "setting": "[2]; control: wild-type hSVCT2-YFP", "value": "decreases"}]}, {"substance": "hSVCT1: N138Q", "values": [{"measurement": "expression_or_secretion", "setting": "[2]; control: wild-type hSVCT1-YFP", "value": "decreases"}, {"measurement": "localisation_or_trafficking", "setting": "[3]", "value": "decreases"}, {"measurement": "localisation_or_trafficking", "setting": "[1]", "value": "decreases"}]}, {"substance": "hSVCT2: tunicamycin", "values": [{"measurement": "expression_or_secretion", "setting": "[2]; control: untreated", "value": "decreases"}, {"measurement": "localisation_or_trafficking", "setting": "[4]", "value": "no change"}]}, {"substance": "hSVCT1: tunicamycin", "values": [{"measurement": "expression_or_secretion", "setting": "[2]; control: untreated", "value": "decreases"}, {"measurement": "localisation_or_trafficking", "setting": "[4]", "value": "decreases"}]}, {"substance": "hSVCT2: N196Q", "values": [{"measurement": "expression_or_secretion", "setting": "[2]; control: wild-type hSVCT2-YFP", "value": "decreases"}]}, {"substance": "hSVCT1: N144Q", "values": [{"measurement": "expression_or_secretion", "setting": "[2]; control: wild-type hSVCT1-YFP", "value": "no change"}, {"measurement": "localisation_or_trafficking", "setting": "[3]", "value": "no change"}, {"measurement": "localisation_or_trafficking", "setting": "[1]", "value": "no change"}, {"measurement": "other: transport activity", "setting": "[5]", "value": "decreases"}]}]}
